Data published in publication PMC11539162, “Distinct roles for the domains of the mitochondrial aspartate/glutamate carrier citrin in organellar localization and substrate transport” (Molecular Metabolism, 2024).

Biological target: the molecule itself
Assay: SEC; size exclusion chromatography of purified full-length citrin and of the calcium-binding site mutant; column and buffer not told

B1: human citrin (mitochondrial aspartate/glutamate carrier isoform 2), full-length wild type (natural protein, UniProt Q9UJS0-1 1-675, looked up)
chain: MAAAKVALTKRADPAELRTIFLKYASIEKNGEFFMSPNDFVTRYLNIFGESQPNPKTVELLSGVVDQTKDGLISFQEFVAFESVLCAPDALFMVAFQLFDKAGKGEVTFEDVKQVFGQTTIHQHIPFNWDSEFVQLHFGKERKRHLTYAEFTQFLLEIQLEHAKQAFVQRDNARTGRVTAIDFRDIMVTIRPHVLTPFVEECLVAAAGGTTSHQVSFSYFNGFNSLLNNMELIRKIYSTLAGTRKDVEVTKEEFVLAAQKFGQVTPMEVDILFQLADLYEPRGRMTLADIERIAPLEEGTLPFNLAEAQRQKASGDSARPVLLQVAESAYRFGLGSVAGAVGATAVYPIDLVKTRMQNQRSTGSFVGELMYKNSFDCFKKVLRYEGFFGLYRGLLPQLLGVAPEKAIKLTVNDFVRDKFMHKDGSVPLAAEILAGGCAGGSQVIFTNPLEIVKIRLQVAGEITTGPRVSALSVVRDLGFFGIYKGAKACFLRDIPFSAIYFPCYAHVKASFANEDGQVSPGSLLLAGAIAGMPAASLVTPADVIKTRLQVAARAGQTTYSGVIDCFRKILREEGPKALWKGAGARVFRSSPQFGVTLLTYELLQRWFYIDFGGVKPMGSEPVPKSRINLPAPNPDHVGGYKLAVATFAGIENKFGLYLPLFKPSVSTSKAIGGGP
notes: human citrin (AGC2), full length, codon-optimised cDNA; UniProt Q9UJS0, isoform NP_055066.1; The tag is followed by a TEV site (ENLYFQG); the protein was released from the resin by TEV digestion; NP_055066.1 is printed for the mammalian construct; the yeast construct is called a codon-optimised cDNA of human citrin; also called AGC2; wild-type citrin; source: S. cerevisiae W303-1B, mitochondria …
- stoichiometry N: 2

B2: human citrin D66A/T68A/D70A/E77A, full-length calcium-binding site mutant (natural protein, UniProt Q9UJS0-1 1-675, looked up)
chain: MAAAKVALTKRADPAELRTIFLKYASIEKNGEFFMSPNDFVTRYLNIFGESQPNPKTVELLSGVVAQAKAGLISFQAFVAFESVLCAPDALFMVAFQLFDKAGKGEVTFEDVKQVFGQTTIHQHIPFNWDSEFVQLHFGKERKRHLTYAEFTQFLLEIQLEHAKQAFVQRDNARTGRVTAIDFRDIMVTIRPHVLTPFVEECLVAAAGGTTSHQVSFSYFNGFNSLLNNMELIRKIYSTLAGTRKDVEVTKEEFVLAAQKFGQVTPMEVDILFQLADLYEPRGRMTLADIERIAPLEEGTLPFNLAEAQRQKASGDSARPVLLQVAESAYRFGLGSVAGAVGATAVYPIDLVKTRMQNQRSTGSFVGELMYKNSFDCFKKVLRYEGFFGLYRGLLPQLLGVAPEKAIKLTVNDFVRDKFMHKDGSVPLAAEILAGGCAGGSQVIFTNPLEIVKIRLQVAGEITTGPRVSALSVVRDLGFFGIYKGAKACFLRDIPFSAIYFPCYAHVKASFANEDGQVSPGSLLLAGAIAGMPAASLVTPADVIKTRLQVAARAGQTTYSGVIDCFRKILREEGPKALWKGAGARVFRSSPQFGVTLLTYELLQRWFYIDFGGVKPMGSEPVPKSRINLPAPNPDHVGGYKLAVATFAGIENKFGLYLPLFKPSVSTSKAIGGGP
notes: Same construct as m1 apart from the four substitutions; also called quadruple alanine mutant; quadruple mutant; source: S. cerevisiae W303-1B, mitochondria solubilised in LMNG, purified (nickel Sepharose, on-column TEV digestion); not shown: His8, N-terminal, cleaved
- stoichiometry N: 2
